Drawing on US20190040149A1 (Innovent, published 2019), this text covers EC50 and Kd for nine molecules.

The target in experiment [1] is T1, murine PD-1 on CHO cells (mouse, UniProt Q02242 25-288).
T1 sequence: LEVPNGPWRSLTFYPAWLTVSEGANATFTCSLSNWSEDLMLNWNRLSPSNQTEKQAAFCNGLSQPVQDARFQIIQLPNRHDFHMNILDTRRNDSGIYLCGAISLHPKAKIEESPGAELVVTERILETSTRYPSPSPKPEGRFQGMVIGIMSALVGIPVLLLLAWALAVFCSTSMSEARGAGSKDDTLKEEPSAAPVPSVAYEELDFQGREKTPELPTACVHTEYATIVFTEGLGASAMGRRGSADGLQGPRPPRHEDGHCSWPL
Put plainly: flow cytometry on CHO cells with murine PD-1. The procedure: Cells are then washed 3×, and are incubated with a secondary antibody (PE-labelled, at final concentration of 5 μg/ml) in PBS 1% BSA for 30 min on ice (protected from light). Cells are washed 3× and analyzed via flow cytometry. Flow cytometry is performed on an Accuri C6 system (BD Biosciences) and MFIs are calculated on the C6 software. EC50 s are calculated on Graphpad software.
A general note: In flow cytometry, cells or beads pass a laser one at a time.

The target in experiment [2] is T2, human PD-1 (soluble antigen of the MSD assay, b-PD-1 monomer) (human, UniProt Q15116 25-170, limits assumed, biotinylated (b-PD-1), site not stated).
T2 construct: The antigen format of the 'avid' measurement is not described
Put plainly: MSD solution equilibrium titration, avid KD. As for the experimental part:
(§1) Equilibrium affinity measurements are performed as previously described (Estep, P., et al., MAbs, 2013. 5(2): p. 270-8). Solution equilibrium titrations (SET) are performed in PBS+0.1% IgG-Free BSA (PBSF) where antigen (b-PD-1 monomer) is held constant at 10-100 pM and is incubated with 3- to 5-fold serial dilutions of Fab or mAbs starting at 5-100 nM (experimental condition is sample dependent). Antibodies diluted at 20 nM in PBS are coated onto standard bind MSD-ECL plates overnight at 4° C. or at room temperature for 30 min. Plates are blocked with BSA for 30 min whilst shaking at 700 rpm. Plates are then washed 3× with wash buffer (PBSF+0.05% Tween 20). SET samples are applied and incubated on the plates for 150 s with shaking at 700 rpm followed by one wash. Antigen captured on a plate is detected with 250 ng/mL sulfotag-labeled streptavidin in PBSF by incubation on the plate for 3 min. The plates are washed three times with wash buffer and are then read on the MSD Sector Imager 2400 instrument using 1× Read Buffer T with surfactant. The percent free antigen is plotted as a function of titrated antibody in Prism and fit to a quadratic equation to extract the KD. To improve throughput, liquid handling robots are used throughout MSD-SET experiments, including for SET sample preparation.

Experiment [3] has as its target T2, human PD-1 (soluble antigen of the MSD …). As to the kind of experiment: MSD solution equilibrium titration, monovalent KD. The procedure:
as §1

Experiment [4] has as its target T3, murine PD-1 (soluble antigen of the MSD assay) (mouse, UniProt Q02242 25-169, limits assumed).
T3 construct: also called mouse PD-1
T3 sequence: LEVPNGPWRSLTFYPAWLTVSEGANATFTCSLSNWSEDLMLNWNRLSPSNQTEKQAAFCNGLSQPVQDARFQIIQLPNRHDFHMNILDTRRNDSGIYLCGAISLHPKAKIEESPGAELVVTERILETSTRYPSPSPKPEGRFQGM
Put plainly: MSD solution equilibrium titration, monovalent KD. As for the experimental part:
as §1

Experiment [5] addresses T4, human PD-1_HIS (human, UniProt Q15116 25-167, limits assumed).
T4 construct: not shown: His tag
Put plainly: bio-layer interferometry (ForteBio), human PD-1_HIS in solution, IgG on sensor tip. As for the experimental part:
Briefly, ForteBio affinity measurements were performed by loading IgGs online onto AHQ sensors. Sensors were equilibrated off-line in assay buffer for 30 min and then monitored on-line for 60 seconds for baseline establishment. Sensors with loaded IgGs were exposed to 100 nM antigen for 5 min, afterwards they were transferred to assay buffer for 5 min for off-rate measurement. Kinetics was analyzed using the 1:1 binding model.

The target in experiment [6] is cyno PD-1_Fc (cyno). As to the kind of experiment: bio-layer interferometry (ForteBio), Fab in solution, cyno PD-1_Fc on sensor tip. Background: BLI is a label-free optical method that tracks binding on a fibre tip over time.
Experiment [7] has as its target T5, human PD-1_Fc (human, UniProt Q15116 25-167, limits assumed).
T5 construct: not shown: Fc part
As to the kind of experiment: bio-layer interferometry (ForteBio), Fab in solution, human PD-1_Fc on sensor tip.

Experiment [8] concerns the target T6, murine PD-1_Fc (mouse, UniProt Q02242 25-167, limits assumed).
T6 construct: not shown: Fc part
T6 sequence: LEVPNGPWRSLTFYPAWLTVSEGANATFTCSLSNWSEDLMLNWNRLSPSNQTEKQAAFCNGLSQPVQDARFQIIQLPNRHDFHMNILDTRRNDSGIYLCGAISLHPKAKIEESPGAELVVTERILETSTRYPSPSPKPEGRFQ
Put plainly: bio-layer interferometry (ForteBio), Fab in solution, murine PD-1_Fc on sensor tip.

Experiment [9] concerns the target T3, murine PD-1 (soluble antigen of the MSD …). Put plainly: MSD solution equilibrium titration, avid KD. As for the experimental part: as §1

As usually defined, the EC50 is the concentration at which the effect is half-maximal. Lower therefore signals an effect from little substance. A word on the Kd: it is the concentration at which binding is half-saturated. Low values mean tighter binding, high ones weaker binding.

T4 sequence (Q15116 25-167 limits assumed): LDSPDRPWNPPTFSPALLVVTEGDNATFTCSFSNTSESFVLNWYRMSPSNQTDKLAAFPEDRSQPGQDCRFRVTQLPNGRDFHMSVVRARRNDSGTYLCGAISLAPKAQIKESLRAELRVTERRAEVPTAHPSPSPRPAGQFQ
T5 sequence (Q15116 25-167 limits assumed): as above
T2 sequence (Q15116 25-170 limits assumed): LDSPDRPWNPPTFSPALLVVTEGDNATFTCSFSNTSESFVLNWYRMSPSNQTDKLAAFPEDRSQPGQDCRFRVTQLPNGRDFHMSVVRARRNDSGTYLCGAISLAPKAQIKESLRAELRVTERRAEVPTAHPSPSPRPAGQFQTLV

B1: Antibody D, IgG1 format expressed in yeast (antibody, V domains shown)
VH: QVQLVQSGAEVKKPGASVKVSCKASGYTFEKYYMHWVRQAPGQGLEWMGIINPDGGSTGYAQKFQGRVTMTRDTSTSTVYMELSSLRSEDTAVYYCAKEGVADGYGLVDVWGQGTMVTVSS
VL: EIVLTQSPATLSLSPGERATLSCRASQSVSSYLAWYQQKPGQAPRLLIYDASKRATGIPARFSGSGSGTDFTLTISSLEPEDFAVYYCDQRNNWPLTFGGGTKVEIK
notes: Tested in IgG1 format, expressed in yeast
On to B1, for which the 50% effective concentration (EC50) in experiment [1] amounted to 9.26 nM. The equilibrium dissociation constant (Kd) was determined as 0.035 nM in [2], 0.3 nM in experiment [3], 2.3 nM in [4] and 1.9 nM in experiment [5].

B2: Fab of Antibody C (Fab, V domains shown)
VH: QVQLVQSGAEVKKPGASVKVSCKASGYTFTAQYMHWVRQAPGQGLEWMGIINPSGGETGYAQKFQGRVTMTRDTSTSTVYMELSSLRSEDTAVYYCAKEGVADGYGLVDVWGQGTMVTVSS
VL: EIVLTQSPATLSLSPGERATLSCRASQSVSSYLAWYQQKPGQAPRLLIYDASKRATGIPARFSGSGSGTDFTLTISSLEPEDFAVYYCDQRNNWPLTFGGGTKVEIK
notes: Fab in solution in BLI; also called Antibody C (Fab in solution)
On to B2, for which the figures for the Kd in [6], in [7] and in [8] were 2.4 nM, 2 nM and 10 nM, respectively.

B3: Fab of Antibody D (Fab, V domains shown)
VH: QVQLVQSGAEVKKPGASVKVSCKASGYTFEKYYMHWVRQAPGQGLEWMGIINPDGGSTGYAQKFQGRVTMTRDTSTSTVYMELSSLRSEDTAVYYCAKEGVADGYGLVDVWGQGTMVTVSS
VL: EIVLTQSPATLSLSPGERATLSCRASQSVSSYLAWYQQKPGQAPRLLIYDASKRATGIPARFSGSGSGTDFTLTISSLEPEDFAVYYCDQRNNWPLTFGGGTKVEIK
notes: Fab in solution in BLI; also called Antibody D (Fab in solution)
Take B3: the equilibrium dissociation constant (Kd) is 4.4 nM in [6], 3.4 nM in experiment [7] and 7.8 nM in experiment [8].

B4: Antibody F, IgG1 format expressed in yeast (antibody, V domains shown)
VH: QVQLVQSGAEVKKPGASVKVSCKASGYTFSAYYMHWVRQAPGQGLEWMGIINPDGGSTGYAQKFQGRVTMTRDTSTSTVYMELSSLRSEDTAVYYCAKEGVADGYGLVDVWGQGTMVTVSS
VL: EIVLTQSPATLSLSPGERATLSCRASQSVSSYLAWYQQKPGQAPRLLIYDASKRATGIPARFSGSGSGTDFTLTISSLEPEDFAVYYCDQRNNWPLTFGGGTKVEIK
notes: as for B1
B4 returned an EC50 in experiment [1] of 5.86 nM. For the same molecule, the dissociation constant (Kd) in [2] came out at 0.018 nM; in experiment [9] it was 0.44 nM; in [3], 0.17 nM; in experiment [4], 1.2 nM; in [5], 1.6 nM.

B5: Antibody B, IgG1 format expressed in yeast (antibody, V domains shown)
VH: QVQLVQSGAEVKKPGASVKVSCKASGYTFEGYYMHWVRQAPGQGLEWMGIINPEGGETSYAQKFQGRVTMTRDTSISTAYMELSRLRSDDTAVYYCAKEGVADGYGLVDVWGQGTMVTVSS
VL: EIVLTQSPATLSLSPGERATLSCRASQSVSSYLAWYQQKPGQAPRLLIYDASKRATGIPARFSGSGSGTDFTLTISSLEPEDFAVYYCDQRNNWPLTFGGGTKVEIK
notes: as for B1
In [1], B5 registered an EC50 of 6.13 nM. Further, the equilibrium dissociation constant (Kd) in [2] is 0.014 nM; in experiment [9], 0.38 nM; in experiment [3], 0.13 nM; in [4], 2.7 nM; in [5], 1.4 nM.

B6: Fab of Antibody E (Fab, V domains shown)
VH: QVQLVQSGAEVKKPGASVKVSCKASGYTFTSNYMHWVRQAPGQGLEWMGIINPSEGSTGYAQKFQGRVTMTRDTSTSTVYMELSSLRSEDTAVYYCAKEGVADGYGLVDVWGQGTMVTVSS
VL: EIVLTQSPATLSLSPGERATLSCRASQSVSSYLAWYQQKPGQAPRLLIYDASKRATGIPARFSGSGSGTDFTLTISSLEPEDFAVYYCDQRNNWPLTFGGGTKVEIK
notes: Fab in solution in BLI; also called Antibody E (Fab in solution)
Regarding B6, the Kd in experiment [6] amounted to 3.3 nM; in [7], 2.7 nM; in [8] it was 7.6 nM.

B7: Fab of Antibody A (Fab, V domains shown)
VH: QVQLVQSGAEVKKPGASVKVSCKASGYTFTSYYMHWVRQAPGQGLEWMGIINPSGGSTSYAQKFQGRVTMTRDTSTSTVYMELSSLRSEDTAVYYCAKEGVADGYGLVDVWGQGTMVTISS
VL: EIVLTQSPATLSLSPGERATLSCRASQSVSSYLAWYQQKPGQAPRLLIYDASKRATGIPARFSGSGSGTDFTLTISSLEPEDFAVYYCDQRNNWPLTFGGGTKVEIK
notes: Fab used in solution in the bio-layer interferometry columns 'Fab in solution'; also called Antibody A (Fab in solution)
B7: the Kd in experiment [6] came to 14 nM; in experiment [7] it was 16 nM; in experiment [8], 33 nM.

B8: Fab of Antibody B (Fab, V domains shown)
VH: QVQLVQSGAEVKKPGASVKVSCKASGYTFEGYYMHWVRQAPGQGLEWMGIINPEGGETSYAQKFQGRVTMTRDTSISTAYMELSRLRSDDTAVYYCAKEGVADGYGLVDVWGQGTMVTVSS
VL: EIVLTQSPATLSLSPGERATLSCRASQSVSSYLAWYQQKPGQAPRLLIYDASKRATGIPARFSGSGSGTDFTLTISSLEPEDFAVYYCDQRNNWPLTFGGGTKVEIK
notes: Fab in solution in BLI; also called Antibody B (Fab in solution)
As to B8, the equilibrium dissociation constant (Kd) was 3.7 nM in [6], 2.7 nM in experiment [7] and 17 nM in [8].

B9: Fab of Antibody F (Fab, V domains shown)
VH: QVQLVQSGAEVKKPGASVKVSCKASGYTFSAYYMHWVRQAPGQGLEWMGIINPDGGSTGYAQKFQGRVTMTRDTSTSTVYMELSSLRSEDTAVYYCAKEGVADGYGLVDVWGQGTMVTVSS
VL: EIVLTQSPATLSLSPGERATLSCRASQSVSSYLAWYQQKPGQAPRLLIYDASKRATGIPARFSGSGSGTDFTLTISSLEPEDFAVYYCDQRNNWPLTFGGGTKVEIK
notes: Fab in solution in BLI; also called Antibody F (Fab in solution)
On to B9, for which the Kd in experiment [6] is 3.6 nM; in experiment [7], 3 nM; in experiment [8], 6.1 nM.
